The values that follow come from patent publication US20210308260A1.

This experiment concerns the target OVA-specific T-cell antigen receptor of OT1 transgenic mice (mouse). In words: flow cytometry, OVA tetramer staining of peripheral blood CD8+ T cells of OT1 mice.

Regarding OVA tetramer (peptide-MHC), the proportion of CD8+ T cells specifically recognized by OVA (tetramer-positive) is 95.3%.
